Assay results: patent EP4628095A1 (Xiamen University, dated 2025)

Columns and labels:
[1] = target: T1, P2-3D-RBD (insect cell expression system); experiment: SPR (Biacore 8K), HEV-p239 coupled to CM5 chip (Fig. 10A)
T1 construct: also called VHH-RBD

[2] = target: T2, P2-3A-RBD (insect cell expression system); experiment: as above
T2 construct: also called VHH-RBD

[3] = target: T3, P2-3E-RBD (insect cell expression system); experiment: as above
T3 construct: also called VHH-RBD

[4] = target: T4, P1-5B-RBD (insect cell expression system); experiment: as above
T4 construct: also called VHH-RBD; P1-5B-RBD fusion protein

[5] = target: T5, P1-5B-RBD (mammalian cell expression system); experiment: SPR (Biacore 8K), HEV-p239 coupled to CM5 chip (Fig. 10B)
T5 construct: also called VHH-RBD

[6] = target: T6, P2-3A-RBD (mammalian cell expression system); experiment: as above
T6 construct: also called VHH-RBD

[7] = target: T7, P2-5C-RBD (mammalian cell expression system); experiment: as above
T7 construct: also called VHH-RBD

[8] = target: T8, P2-2C-RBD (mammalian cell expression system); experiment: as above
T8 construct: also called VHH-RBD

[9] = target: T9, P2-3E-RBD (mammalian cell expression system); experiment: as above
T9 construct: also called VHH-RBD

Measured: binding result

B1: HEV-p239 protein (other)
chain: IALTLFNLADTLLGGLPTELISSAGGQLFYSRPVVSANGEPTVKLYTSVENAQQDKGIAIPHDIDLGESRVVIQDYDNQHEQDRPTPSPAPSRPFSVLRANDVLWLSLTAAEYDQSTYGSSTGPVYVSDSVTLVNVATGAQAVARSLDWTKVTLDGRPLSTIQQYSKTFFVLPLRGKLSFWEAGTTKAGYPYNYNTTASDQLLVENAAGHRVAISTYTTSLGAGPVSISAVAVLAPHSV
notes: also called HEV-p239 particles; HEV particles
binds: all assays above
